Measured values reported in patent US20220009979A1 (Alexion, published 2022).

B1: Compound AC (Fc fusion)
chain: ISCGSPPPILNGRISYYSTPIAVGTVIRYSCSGTFRLIGEKSLLCITKDKVDGTWDKPAPKCEYFNKYSSCPEPIVPGGYKIRGSTPYRHGDSVTFACKTNFSMNGQKSVWCQANNMWGPTRLPTCVSVFPGGGGSDAAVECPPCPAPPVAGPSVFLFPPKPKDTLMISRTPEVTCVVVDVSQEDPEVQFNWYVDGVEVHNAKTKPREEQFNSTYRVVSVLTVLHQDWLNGKEYKCKVSNKGLPSSIEKTISKAKGQPREPQVYTLPPSQEEMTKNQVSLTCLVKGFYPSDIAVEWESNGQPENNYKTTPPVLDSDGSFFLYSRLTVDKSRWQEGNVFSCSVMHEALHNHYTQKSLSLSLGKGGGGAGGGGAGGGAGGGGSEDCNELPPRRNTEILTGSWSDQTYPEGTQAIYKCRPGYRSLGNVIMVCRKGEWVALNPLRKCQKRPCGHPGDTPFGTFTLTGGNVFEYGVKAVYTCNEGYQLLGEINYRECDTDGWTNDIPICEVVKCLPVTAPENGKIVSSAMEPDREYHFGQAVRFVCNSGYKIEGDEEMHCSDDGFWSKEKPKCVEISCKSPDVINGSPISQKIIYKENERFQYKCNMGYEYSERGDAVCTESGWRPLPSCEEKS
B2: Compound AQ (Fc fusion)
chain: ISCGSPPPILNGRISYYSTPIAVGTVIRYSCSGTFRLIGEKSLLCITKDKVDGTWDKPAPKCEYFNKYSSCPEPIVPGGYKIRGSTPYRHGDSVTFACKTNFSMNGQKSVWCQANNMWGPTRLPTCVSVFPGGGGSDAAVECPPCPAPPVAGPSVFLFPPKPKDTLMISRTPEVTCVVVDVSQEDPEVQFNWYVDGVEVHNAKTKPREEQFNSTYRVVSVLTVLHQDWLNGKEYKCKVSNKGLPSSIEKTISKAKGQPREPQVYTLPPSQEEMTKNQVSLTCLVKGFYPSDIAVEWESNGQPENNYKTTPPVLDSDGSFFLYSRLTVDKSRWQEGNVFSCSVMHEALHNHYTQKSLSLSLGK
B3: Compound AP (Fc fusion)
chain: VECPPCPAPPVAGPSVFLFPPKPKDTLMISRTPEVTCVVVDVSQEDPEVQFNWYVDGVEVHNAKTKPREEQFNSTYRVVSVLTVLHQDWLNGKEYKCKVSNKGLPSSIEKTISKAKGQPREPQVYTLPPSQEEMTKNQVSLTCLVKGFYPSDIAVEWESNGQPENNYKTTPPVLDSDGSFFLYSRLTVDKSRWQEGNVFSCSVMHEALHNHYTQKSLSLSLGKGGGGAGGGGAGGGAGGGGSEDCNELPPRRNTEILTGSWSDQTYPEGTQAIYKCRPGYRSLGNVIMVCRKGEWVALNPLRKCQKRPCGHPGDTPFGTFTLTGGNVFEYGVKAVYTCNEGYQLLGEINYRECDTDGWTNDIPICEVVKCLPVTAPENGKIVSSAMEPDREYHFGQAVRFVCNSGYKIEGDEEMHCSDDGFWSKEKPKCVEISCKSPDVINGSPISQKIIYKENERFQYKCNMGYEYSERGDAVCTESGWRPLPSCEEKS

Target: T1, Purified C3d (Quidel, San Diego, Calif.) (UniProt P01024 1002-1303, biotinylated via sulfo-NHS-LC linkage)
T1 construct: domain: C3d; also called immobilized C3d
Test: Octet BLI; biotinylated C3d immobilized on streptavidin biosensors, construct in solution at 2 uM, 600 s association, 1200 s dissociation

T1 sequence (P01024 1002-1303 limits assumed): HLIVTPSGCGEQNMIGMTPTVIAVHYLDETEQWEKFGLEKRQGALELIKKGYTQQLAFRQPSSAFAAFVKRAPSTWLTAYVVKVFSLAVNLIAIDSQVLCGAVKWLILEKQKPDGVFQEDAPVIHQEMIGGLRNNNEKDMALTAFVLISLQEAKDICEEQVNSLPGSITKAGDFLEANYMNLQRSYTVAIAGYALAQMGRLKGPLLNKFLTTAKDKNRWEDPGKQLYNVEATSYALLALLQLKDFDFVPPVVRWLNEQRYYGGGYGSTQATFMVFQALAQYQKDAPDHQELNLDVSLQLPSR

Binder	Kd	koff	kon	binding result
B1	744 nM	0.18 s⁻¹	242000 M⁻¹ s⁻¹	–
B2	679 nM	0.189 s⁻¹	278000 M⁻¹ s⁻¹	–
B3	–	–	–	no binding (tested: 2 uM)
